Reference: patent US20180208664A1 (APOGENIX, published 2018)
Ends that are not written are not given here.

Experiments:
[1] = molecular target: T1, APG296 (human CD95L-RB69) (human); assay: ELISA, APG296 coated
T1 construct: also called recombinant CD95L; human CD95L (APG296)
T1 chain: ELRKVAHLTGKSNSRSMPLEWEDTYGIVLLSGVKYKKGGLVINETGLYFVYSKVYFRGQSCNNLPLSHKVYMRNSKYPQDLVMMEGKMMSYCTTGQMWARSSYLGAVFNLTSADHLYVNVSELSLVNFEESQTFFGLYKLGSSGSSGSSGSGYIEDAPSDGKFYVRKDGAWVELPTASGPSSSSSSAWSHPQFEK

[2] = molecular target: T2, APG293 (human CD95L-T4) (human); assay: cell-based or functional assay
T2 chain: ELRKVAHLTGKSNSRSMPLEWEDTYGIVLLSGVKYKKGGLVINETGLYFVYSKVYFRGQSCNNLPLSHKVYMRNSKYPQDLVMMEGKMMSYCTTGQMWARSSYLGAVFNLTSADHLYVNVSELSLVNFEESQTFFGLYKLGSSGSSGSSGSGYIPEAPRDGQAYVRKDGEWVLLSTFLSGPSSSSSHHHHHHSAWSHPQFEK

[3] = molecular target: T3, peptide C-YMRNSKY (also: immobilized to BSA or ovalbumin); assay: peptide ELISA, peptide on BSA or ovalbumin coated
T3 construct: Printed as 'C-YMRNSKY'; the leading C is read as an added cysteine
T3 peptide: CYMRNSKY
Experimental: (§1) Binding of the rabbit monoclonal antibody was detected by incubation with goat anti rabbit IgG-Peroxidase (Sigma; dilution 1:5000) and subsequent detection of the converted Peroxidase-substrate TMBone at a wavelength of 450 nm in an ELISA reader (FIG. 13).
Binding of the rabbit monoclonal antibody was detected by incubation with goat anti rabbit IgG-Peroxidase (Sigma; dilution 1:5000) and subsequent detection of the converted Peroxidase-substrate TMBone at a wavelength of 450 nm in an ELISA reader (FIG. 14).

[4] = molecular target: T4, APG707 (LIGHT-RB69) (human); assay: competition ELISA, APG296 coated, APG707 as soluble competitor
T4 construct: Structurally related TNF-superfamily protein with the same trimerisation scaffold as APG296; also called human LIGHT (APG707)
T4 chain: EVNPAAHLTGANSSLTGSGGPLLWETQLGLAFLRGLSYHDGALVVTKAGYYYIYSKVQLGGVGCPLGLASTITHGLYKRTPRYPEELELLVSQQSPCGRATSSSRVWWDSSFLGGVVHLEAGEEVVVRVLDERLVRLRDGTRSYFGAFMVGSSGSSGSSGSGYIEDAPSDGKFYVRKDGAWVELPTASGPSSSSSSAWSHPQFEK
Experimental: as §1, with “For the competition ELISA, 96-well microtiter plates were coated with 10 μg/ml APG296 (CD95L-RB69). […] Binding” for “Binding”, “antibodies” for “antibody”, “6).” for “13).”

[5] = molecular target: T5, epitope-comprising peptide YMRNSKYPQD (also: coupled to BSA); assay: QCM (Attana A100), peptide-BSA immobilized, antibody as analyte
T5 peptide: YMRNSKYPQD
Experimental: The A100 allows to investigate molecular interactions in real-time based on the Quartz Crystal Microbalance (QCM) technique. For this purpose, the respective epitope comprising peptide was coupled to BSA and subsequently immobilized to the surface of a carboxyl-activated QCM-chip. […] Binding (kₒₙ) and dissociation (koff) was analyzed in real time, and the respective KD was calculated (see table in FIG. 16).

[6] = molecular target: T6, epitope-comprising peptide YMRNSKYPQD (also: coupled to BSA); assay: QCM; immobilized BSA-coupled peptide
T6 peptide: YMRNSKYPQD

| Binder | binding result [1] | EC50, Assay 1: antagonism of CD95L-T4-induced apoptosis on Jurkat A3 cells [2] [µg/mL] | EC50, Assay 2: antagonism of CD95L-T4-induced apoptosis on Jurkat A3 cells [2] [µg/mL] | EC50, Assay 3: antagonism of CD95L-T4-induced apoptosis on Jurkat A3 cells [2] [µg/mL] | EC50, Assay 4: antagonism of CD95L-T4-induced apoptosis on Jurkat A3 cells [2] [µg/mL] | EC50, Mean: antagonism of CD95L-T4-induced apoptosis on Jurkat A3 cells [2] [µg/mL] | binding result [3] | binding result [4] | binding result [5] | Kd [6] [nM] |
| --- | --- | --- | --- | --- | --- | --- | --- | --- | --- | --- |
| rabbit monoclonal anti-CD95L antibody clone 145-12 (antibody, V domains shown, Rabbit monoclonal IgG from a hybridoma subclone; Only VH and VL are tied to the clone by name; also called mAB145-12; mAb145-12) VH: QSLEESGGDLVKPGASLTLTCTASGFSFSSGYDMCWVRQAPGKGLEWIACIDTDNDATYYASWAKGRFTISKPSSTTVLLQITSLTAADTATYFCATTHGDYVAFKLWGPGTLVTVSS VL: QVLTQTASSVSAAVGGTVTINCQSSQSVYKNNDLSWYQQKPRQPPKLLIYQASKLASGVPSRFKGSGSGTQFTLTIGDLECDDGATYYCAGGYTASIYAFGGGTEVVVKG | binds | 0.187 | 0.198 | 0.225 | 0.192 | 0.201 | no binding (tested: 2 µg/ml) | no binding (tested: 100 µg/ml) | binds | 7.22 |
| rabbit monoclonal anti-CD95L antibody clone 119-4 (antibody, V domains shown, Rabbit monoclonal IgG from a hybridoma subclone, detected with anti-rabbit IgG; Only VH and VL are tied to the clone by name; also called mAb119-4) VH: QSLEESGGDLVKPGGTLTLTCTTSGFSFSDHYWMCWVRQAPGKGLEWIACIYTADSDSYYASWAKGRFTISKTSSTTVTLQMTSLTAADTATYFCARNGAYAGGPYGDLWGPGTLVTVSS VL: DIVMTQTPSSVEAAVGGTVTIKCQASQSIRTSLVWYQQKPGQPPKLLIYKASDLPSGVPSRFKGSGSGTQFTLTISDLECADAATYYCQSYDFRDTINNGHSFGGGTEVVVKG |  |  |  |  |  |  | no binding (tested: 2 µg/ml) | no binding (tested: 100 µg/ml) | binds | 1.2 |
